Experiments:
[1] = molecular target: VCP (valosin-containing protein) (UniProt P55072); assay: Flag-FAF1 co-IP, immunoblot; conditions: reference: wild type; sites S582
[2] = molecular target: TβRII (TGF-β type II receptor) (UniProt P37173); assay: Flag-FAF1 co-IP, immunoblot; conditions: reference: wild type; sites S582

binding against the reference [1]: stronger
binding against the reference [2]: stronger
Substance: FAF1 (FAS-associated factor 1) (from UniProt Q9UNN5) S582A

— publication PMC5414047
